Assay results published in the supplement of paper PMC10126150.
± gives the standard deviation of the averaged measurements.

Test system: ATP
Assay: switch fluorescence ratio, 500 uM ATP over buffer (Cy3 cluster intensity, sum of 5 cycles each) (fold (ratio)); higher = stronger signal-on switching upon ATP binding; sequences stand for … in TCGTCGGCAGCGTCAGATGTGTATAAGAGACAGTTTTTTTTTTTTTTTTTTTTTTTTT…TC
Conditions: aptamer strand: ATP DNA aptamer (quencher-CACCTGGGGGAGTATTGCGGAGGAAGG + anchor), 100 nM annealed; ATP concentration: 500 uM
Method in brief: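 The quencher-labelled ATP aptamer, at 100 nM, was annealed to Cy3-labelled switching-strand clusters on a modified Illumina MiSeq flow-cell. The clusters were imaged in selection buffer, then after 15 min with 500 uM ATP at 22 °C, and this buffer/ATP cycle ran five times with NaOH stripping and re-annealing between runs. Per-cluster fluorescence ratios, summed target-cycle over summed buffer-cycle Cy3 intensity, were averaged per switch-domain sequence. Clusters outside 100-1000 RFU were excluded.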
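Further: ATP exposure 15 min at 22 °C before imaging.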

AATATTGTCT
switch fluorescence ratio: 0.96 ± 0.013

GGATGATCGT
switch fluorescence ratio: 0.954 ± 0.029

CGTGCTGGGA
switch fluorescence ratio: 1.03 ± 0.033

TGGTAGGTA
switch fluorescence ratio: 0.987 ± 0.013

TCAACCTACG
switch fluorescence ratio: 1.36 ± 0.17

TTAGTCCGTG
switch fluorescence ratio: 1.01 ± 0.036

TAAGCGGCGA
switch fluorescence ratio: 0.973 ± 0.013

GGGTTCTATG
switch fluorescence ratio: 1.004 ± 0.0042

ATGGTGCGGA
switch fluorescence ratio: 0.956 ± 0.06

ATGGTCGCGG
switch fluorescence ratio: 0.985 ± 0.035

GAGGAGTGGT
switch fluorescence ratio: 0.984 ± 0.015

TGGATATGAC
switch fluorescence ratio: 1 ± 0.015

AGGGGGTGGG
switch fluorescence ratio: 0.989 ± 0.02

TATATTTTCA
switch fluorescence ratio: 1.01 ± 0.068

CATGCCTTGT
switch fluorescence ratio: 1.009 ± 0.0059

TTGGAGTTGG
switch fluorescence ratio: 0.976 ± 0.043

TTAACTTTCA
switch fluorescence ratio: 1.04 ± 0.029

AGGGCTGAGC
switch fluorescence ratio: 0.996 ± 0.052

AAAGTAGCCT
switch fluorescence ratio: 1.08 ± 0.057

TGCAGGATAT
switch fluorescence ratio: 1.61 ± 0.57

AGGATTGGTG
switch fluorescence ratio: 0.999 ± 0.052

CTGGGATAGG
switch fluorescence ratio: 1 ± 0.02

TCGGTTTCAA
switch fluorescence ratio: 1.009 ± 0.0056

CCGGTGCCAA
switch fluorescence ratio: 3.85 ± 0.21

TTAGGGAATT
switch fluorescence ratio: 0.989 ± 0.046

TAATTTGATG
switch fluorescence ratio: 0.979 ± 0.027

ATCGGCGGTG
switch fluorescence ratio: 0.986 ± 0.025

GACGGGCCGT
switch fluorescence ratio: 1.01 ± 0.021

TTCCAGGATT
switch fluorescence ratio: 1.04 ± 0.089

CTCTATTGTG
switch fluorescence ratio: 0.964 ± 0.027

CAAGACTTGC
switch fluorescence ratio: 1.03 ± 0.045

TATGAACTGC
switch fluorescence ratio: 1.04 ± 0.041

GAGTTGGTCT
switch fluorescence ratio: 1 ± 0.027

AGCCTATACT
switch fluorescence ratio: 1.6 ± 0.16

CCGAAAAGCT
switch fluorescence ratio: 1.17 ± 0.041

TTGGGATGTG
switch fluorescence ratio: 0.986 ± 0.053

ACTTGAAGGT
switch fluorescence ratio: 1.02 ± 0.017

GGAGGGAGTG
switch fluorescence ratio: 0.98 ± 0.025

AGAAGTGGTC
switch fluorescence ratio: 1.01 ± 0.031

TAGTGACACG
switch fluorescence ratio: 1.03 ± 0.045

TTACAGTTCA
switch fluorescence ratio: 1.026 ± 0.0058

GTTTCCTGGG
switch fluorescence ratio: 1.03 ± 0.082

TATATGTGAT
switch fluorescence ratio: 0.987 ± 0.017

TGTGAATGGG
switch fluorescence ratio: 1.02 ± 0.017

GGAATGTTGC
switch fluorescence ratio: 0.9733 ± 0.0039

TTACCCCGTG
switch fluorescence ratio: 1.13 ± 0.022

TGGACAAATT
switch fluorescence ratio: 1.02 ± 0.022

GGGGACTGTA
switch fluorescence ratio: 1.04 ± 0.061

TTGATTAGGC
switch fluorescence ratio: 1.06 ± 0.029

TCGAAGGGTG
switch fluorescence ratio: 0.999 ± 0.04

ATTGTTTTAG
switch fluorescence ratio: 1.01 ± 0.025

AAGTATCCGT
switch fluorescence ratio: 0.986 ± 0.048

TATTTTCATT
switch fluorescence ratio: 0.999 ± 0.015

GGGTCTTTGG
switch fluorescence ratio: 0.97 ± 0.023

GGTACTCATC
switch fluorescence ratio: 1.02 ± 0.052

TCTTTGATTT
switch fluorescence ratio: 1 ± 0.048

GATCTTTGTT
switch fluorescence ratio: 1.009 ± 0.0093

GAATCATATG
switch fluorescence ratio: 0.977 ± 0.011

TCGTAGTGGG
switch fluorescence ratio: 1.01 ± 0.054

TAGGGATCCC
switch fluorescence ratio: 1.04 ± 0.028

TAATTTAAGT
switch fluorescence ratio: 1.01 ± 0.028

AAAAAGAATG
switch fluorescence ratio: 0.973 ± 0.03

TAAAGGAGTT
switch fluorescence ratio: 0.981 ± 0.032

CGCCGGGTTT
switch fluorescence ratio: 1.02 ± 0.018

GACGGATGTG
switch fluorescence ratio: 0.986 ± 0.032

TTTTTTCGTG
switch fluorescence ratio: 1.001 ± 0.0077

TACTTTATTT
switch fluorescence ratio: 1.16 ± 0.21

TTAATGTTGT
switch fluorescence ratio: 1 ± 0.035

TTGGCGGCTT
switch fluorescence ratio: 1.02 ± 0.032

TTTTTGGACC
switch fluorescence ratio: 1.1 ± 0.22

ACTGGGAGTG
switch fluorescence ratio: 1 ± 0.042

ACTGCAAGGA
switch fluorescence ratio: 1.029 ± 0.0078

GAAATGGGTG
switch fluorescence ratio: 1.04 ± 0.078

TGTTTCTTTT
switch fluorescence ratio: 1.01 ± 0.024

CTGCTGCAGG
switch fluorescence ratio: 1.03 ± 0.044

GGGGGCACGG
switch fluorescence ratio: 1.01 ± 0.012

TCCAGGGGGT
switch fluorescence ratio: 2.41 ± 0.044

TTATTTGGTA
switch fluorescence ratio: 0.986 ± 0.044

GCCGTATGG
switch fluorescence ratio: 0.997 ± 0.012

TACATTAATA
switch fluorescence ratio: 1.054 ± 0.0049

AAGCTGGCTG
switch fluorescence ratio: 0.945 ± 0.029

CTCCGGGGTT
switch fluorescence ratio: 1.85 ± 0.35

GGGAGCCGGG
switch fluorescence ratio: 1.03 ± 0.015

AGGTTTTTCA
switch fluorescence ratio: 0.983 ± 0.017

GGGATGATAG
switch fluorescence ratio: 0.959 ± 0.032

AAGTCGGTTA
switch fluorescence ratio: 1 ± 0.02

GTGATTTTAT
switch fluorescence ratio: 0.969 ± 0.028

TTGTGGCAAC
switch fluorescence ratio: 1.24 ± 0.3

TCTGTGGCAA
switch fluorescence ratio: 1.18 ± 0.28

AAACGGACGG
switch fluorescence ratio: 1.24 ± 0.029

TTAGTTGGGC
switch fluorescence ratio: 1.01 ± 0.069

AAGTTTCGCG
switch fluorescence ratio: 0.976 ± 0.027

GATCGGGGGA
switch fluorescence ratio: 1.02 ± 0.015

AAGTTGCGCT
switch fluorescence ratio: 1 ± 0.034

CAGTTGAGGT
switch fluorescence ratio: 0.998 ± 0.013

GTACTCATTT
switch fluorescence ratio: 1 ± 0.038

ATACGTGGCA
switch fluorescence ratio: 0.9601 ± 0.0037

TGAGTGCTGT
switch fluorescence ratio: 0.968 ± 0.02

ATTTTGGCGT
switch fluorescence ratio: 0.982 ± 0.037

CGGTGTTGTG
switch fluorescence ratio: 0.986 ± 0.024

TTTTTAATTA
switch fluorescence ratio: 1.005 ± 0.008

TGAGGTTGAG
switch fluorescence ratio: 1.03 ± 0.059

CCAGGTAGG
switch fluorescence ratio: 1.24 ± 0.068

CGTTCATTAG
switch fluorescence ratio: 1.003 ± 0.0076

GATGGGGAGT
switch fluorescence ratio: 0.9715 ± 0.0057

TTTGGGAGTG
switch fluorescence ratio: 0.965 ± 0.037

AAATCACGGA
switch fluorescence ratio: 1.44 ± 0.23

TTTAAGGTCG
switch fluorescence ratio: 1.03 ± 0.082

CGCACTTCTG
switch fluorescence ratio: 1.02 ± 0.024

ACCATGGGCT
switch fluorescence ratio: 0.974 ± 0.038

AAGTCAATGT
switch fluorescence ratio: 1.015 ± 0.0027

TAGGGTATAT
switch fluorescence ratio: 0.986 ± 0.015

ATGAAAAAAG
switch fluorescence ratio: 0.993 ± 0.016

GGGGGAAGAG
switch fluorescence ratio: 1.01 ± 0.021

AGGGGCTGCG
switch fluorescence ratio: 0.938 ± 0.029

CTCGTGCCCG
switch fluorescence ratio: 1.05 ± 0.075

TTCGGGCGCG
switch fluorescence ratio: 0.952 ± 0.021

AGTTCGTAAA
switch fluorescence ratio: 1.02 ± 0.029

GGGTCCGAAT
switch fluorescence ratio: 1.02 ± 0.016

CAGATTTTTT
switch fluorescence ratio: 0.982 ± 0.028

CATCATGTCT
switch fluorescence ratio: 1.01 ± 0.03

TAATGTAAAA
switch fluorescence ratio: 0.992 ± 0.01

AACCGTTGAC
switch fluorescence ratio: 1.21 ± 0.02

AGATCGAAGG
switch fluorescence ratio: 1.03 ± 0.018

TTTCGGCGTT
switch fluorescence ratio: 1.043 ± 0.0069

GCATTTGATG
switch fluorescence ratio: 1.0205 ± 0.00084

AACTCGGTCT
switch fluorescence ratio: 1.03 ± 0.095

CACCGGTTGG
switch fluorescence ratio: 1.014 ± 0.0044

AAAAACGCTT
switch fluorescence ratio: 1.01 ± 0.045

GAAGTAGTCG
switch fluorescence ratio: 1.06 ± 0.017

AGTTGGGGGC
switch fluorescence ratio: 1 ± 0.079

TCATGGGAGA
switch fluorescence ratio: 0.984 ± 0.04

AGCTGACCGA
switch fluorescence ratio: 1.083 ± 0.0037

GAGCCCTTAT
switch fluorescence ratio: 0.9812 ± 0.0078

TCTGTGCTGG
switch fluorescence ratio: 0.98 ± 0.024

GGTCGGGAGA
switch fluorescence ratio: 0.96 ± 0.039

TTTGGCCCTT
switch fluorescence ratio: 1.02 ± 0.027

TCATATTGAT
switch fluorescence ratio: 0.984 ± 0.051

TTTGAATTAA
switch fluorescence ratio: 1.01 ± 0.049

AGGAAATGTT
switch fluorescence ratio: 1 ± 0.051

CTGATGTGGC
switch fluorescence ratio: 1.06 ± 0.011

ACTAGGGTAT
switch fluorescence ratio: 0.982 ± 0.061

GACGTGTGAG
switch fluorescence ratio: 0.993 ± 0.034

CGCCTTTGTG
switch fluorescence ratio: 1 ± 0.019

AAGCGTTTTG
switch fluorescence ratio: 0.988 ± 0.0017

TGATTACTCA
switch fluorescence ratio: 1.03 ± 0.021

GGTTGTGATA
switch fluorescence ratio: 0.999 ± 0.044

GAAAATAGGT
switch fluorescence ratio: 0.99 ± 0.024

AATAGGGGTT
switch fluorescence ratio: 0.984 ± 0.03

ACAACGGGGG
switch fluorescence ratio: 1.05 ± 0.025

GAGGGGGGCA
switch fluorescence ratio: 0.977 ± 0.03

AGCTAGTTTA
switch fluorescence ratio: 0.998 ± 0.0036

TTTTGGTCCA
switch fluorescence ratio: 0.981 ± 0.015

TCGGATCATT
switch fluorescence ratio: 0.9775 ± 0.0039

CGTTGGAATA
switch fluorescence ratio: 1.01 ± 0.042

ACTTGTGAAG
switch fluorescence ratio: 1.0247 ± 0.00063

CATAGCATCC
switch fluorescence ratio: 1.48 ± 0.2

ATTGGCTGGT
switch fluorescence ratio: 0.9998 ± 0.0052

GGGTCGGGTA
switch fluorescence ratio: 1.04 ± 0.017

TTTCGGGTAC
switch fluorescence ratio: 1.2 ± 0.22

AATGGGTTTG
switch fluorescence ratio: 1.01 ± 0.03

AAGGTGAATC
switch fluorescence ratio: 1.04 ± 0.019

ATTGTTTTAC
switch fluorescence ratio: 1.02 ± 0.014

GATTCATGGG
switch fluorescence ratio: 1.01 ± 0.0043

GGGAGGTCGG
switch fluorescence ratio: 1.01 ± 0.025

TGACTGGGTT
switch fluorescence ratio: 1.02 ± 0.047

TAGTCTTTTT
switch fluorescence ratio: 1.03 ± 0.027

ATTGGGGGTA
switch fluorescence ratio: 0.977 ± 0.028

TTGAGTTAAA
switch fluorescence ratio: 0.991 ± 0.037

CGAGGGGGGG
switch fluorescence ratio: 1.01 ± 0.025

TCCTCAAGTT
switch fluorescence ratio: 1.23 ± 0.015

TTTGTAGAGC
switch fluorescence ratio: 1.05 ± 0.063

TTCTTGCTGG
switch fluorescence ratio: 0.997 ± 0.019

AAGGAAAGGG
switch fluorescence ratio: 1.21 ± 0.25

CGGTGGGCCG
switch fluorescence ratio: 1.05 ± 0.025

CATGGAGAGG
switch fluorescence ratio: 1.02 ± 0.0086

GGATATTTTT
switch fluorescence ratio: 1.01 ± 0.016

CTAGCACGGA
switch fluorescence ratio: 0.9713 ± 0.0093

GGAATAATGT
switch fluorescence ratio: 1.03 ± 0.061

TAGGTCTAGG
switch fluorescence ratio: 1 ± 0.023

AATTCCTAGG
switch fluorescence ratio: 1.03 ± 0.025

GGGGTTGGTC
switch fluorescence ratio: 1.04 ± 0.048

GCCAGCATAT
switch fluorescence ratio: 1.153 ± 0.0062

TGGCCGACTT
switch fluorescence ratio: 1.02 ± 0.02

ATATTGAGGT
switch fluorescence ratio: 1 ± 0.013

CAGCCTTGGT
switch fluorescence ratio: 1.04 ± 0.11

GGGGCGGATT
switch fluorescence ratio: 0.984 ± 0.014

TTGTTTATTC
switch fluorescence ratio: 1.02 ± 0.071

ATTGGCTGAC
switch fluorescence ratio: 1.13 ± 0.029

TCTTGCCCTG
switch fluorescence ratio: 0.977 ± 0.058

AAGCAGGTTA
switch fluorescence ratio: 1.01 ± 0.0062

CGTTAAAGAT
switch fluorescence ratio: 1.03 ± 0.023

ACAATGAAGA
switch fluorescence ratio: 1.01 ± 0.039

TAGGCGGATA
switch fluorescence ratio: 1.008 ± 0.0023

GGGGAGGGGG
switch fluorescence ratio: 0.999 ± 0.044

CGATGTGTAC
switch fluorescence ratio: 2.71 ± 0.17

TGAGTTAGAG
switch fluorescence ratio: 1.02 ± 0.026

AAGTTTTCCG
switch fluorescence ratio: 0.964 ± 0.062

TCTTGGCTTT
switch fluorescence ratio: 0.976 ± 0.019

GTGGGGGGCT
switch fluorescence ratio: 0.984 ± 0.029
